± gives the standard error.
Experiment: background-corrected fluorescence of 3'-dye-labeled ssDNA relative to brightest sequence (3'-GCGCG) (fraction); higher = brighter dye fluorescence (less quenching)
Summary of the method: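 Arrays of single-stranded DNA, with a 3' Cy3 or Cy5 dye beside each of 1024 permuted pentamers, were built on glass slides through light-directed phosphoramidite synthesis. They were washed for 2 h at r.t. in acetonitrile and scanned at 532 or 635 nm, once before and once after overnight ethylenediamine/ethanol deprotection. Fluorescence is reported after subtracting unlabeled-oligo background and normalizing to the brightest sequence. Averages cover 10 features per array and at least 3 syntheses.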

Sequence	background-corrected fluorescence (dye: Cy3 (3' terminal))	background-corrected fluorescence (dye: Cy5 (3' terminal))
TTTTTTCAGCAGCATGAGCATTTTTTTTTTTTTTTGTTCT [TCTTG]	0.459 ± 0.012	0.367 ± 0.027
TTTTTTCAGCAGCATGATCATTTTTTTTTTTTTTTGTTCG [GCTTG]	0.551 ± 0.0098	0.371 ± 0.032
TTTTTTCAGCAGCATGATGATTTTTTTTTTTTTTTGTTCC [CCTTG]	0.351 ± 0.018	0.275 ± 0.015
TTTTTTCAGCAGCATGATGCTTTTTTTTTTTTTTTGTTCA [ACTTG]	0.492 ± 0.025	0.389 ± 0.044
TTTTTTCAGCAGCATGCGCATTTTTTTTTTTTTTTGTTAT [TATTG]	0.546 ± 0.048	0.389 ± 0.017
TTTTTTCAGCAGCATGCTCATTTTTTTTTTTTTTTGTTAG [GATTG]	0.541 ± 0.019	0.438 ± 0.067
TTTTTTCAGCAGCATGCTGATTTTTTTTTTTTTTTGTTAC [CATTG]	0.447 ± 0.024	0.338 ± 0.055
TTTTTTCAGCAGCATGCTGCTTTTTTTTTTTTTTTGTTAA [AATTG]	0.57 ± 0.032	0.446 ± 0.027
TTTTTTCAGCATCAGCAGCATTTTTTTTTTTTTTTGTGTT	0.565 ± 0.028	0.435 ± 0.082
TTTTTTCAGCATCAGCATCATTTTTTTTTTTTTTTGTGTG	0.604 ± 0.017	0.43 ± 0.03
TTTTTTCAGCATCAGCATGATTTTTTTTTTTTTTTGTGTC [CTGTG]	0.4591 ± 0.0035	0.356 ± 0.068
TTTTTTCAGCATCAGCATGCTTTTTTTTTTTTTTTGTGTA [ATGTG]	0.595 ± 0.019	0.434 ± 0.027
TTTTTTCAGCATCATCAGCATTTTTTTTTTTTTTTGTGGT [TGGTG]	0.659 ± 0.02	0.544 ± 0.031
TTTTTTCAGCATCATCATCATTTTTTTTTTTTTTTGTGGG [GGGTG]	0.717 ± 0.024	0.586 ± 0.041
TTTTTTCAGCATCATCATGATTTTTTTTTTTTTTTGTGGC [CGGTG]	0.572 ± 0.011	0.439 ± 0.041
TTTTTTCAGCATCATCATGCTTTTTTTTTTTTTTTGTGGA [AGGTG]	0.702 ± 0.022	0.606 ± 0.037
TTTTTTCAGCATCATGAGCATTTTTTTTTTTTTTTGTGCT [TCGTG]	0.504 ± 0.024	0.414 ± 0.05
TTTTTTCAGCATCATGATCATTTTTTTTTTTTTTTGTGCG [GCGTG]	0.568 ± 0.056	0.499 ± 0.028
TTTTTTCAGCATCATGATGATTTTTTTTTTTTTTTGTGCC [CCGTG]	0.438 ± 0.022	0.332 ± 0.028
TTTTTTCAGCATCATGATGCTTTTTTTTTTTTTTTGTGCA [ACGTG]	0.589 ± 0.02	0.483 ± 0.028
TTTTTTCAGCATCATGCGCATTTTTTTTTTTTTTTGTGAT [TAGTG]	0.548 ± 0.032	0.429 ± 0.021
TTTTTTCAGCATCATGCTCATTTTTTTTTTTTTTTGTGAG [GAGTG]	0.619 ± 0.028	0.472 ± 0.057
TTTTTTCAGCATCATGCTGATTTTTTTTTTTTTTTGTGAC [CAGTG]	0.483 ± 0.02	0.387 ± 0.064

Sequence	background-corrected fluorescence (dye: Cy3 (3' terminal))	background-corrected fluorescence (dye: Cy5 (3' terminal))
TTTTTTCAGCATCATGCTGCTTTTTTTTTTTTTTTGTGAA [AAGTG]	0.607 ± 0.023	0.511 ± 0.032
TTTTTTCAGCATGAGCAGCATTTTTTTTTTTTTTTGTCTT [TTCTG]	0.505 ± 0.017	0.364 ± 0.03
TTTTTTCAGCATGAGCATCATTTTTTTTTTTTTTTGTCTG	0.54 ± 0.031	0.387 ± 0.025
TTTTTTCAGCATGAGCATGATTTTTTTTTTTTTTTGTCTC [CTCTG]	0.393 ± 0.034	0.33 ± 0.043
TTTTTTCAGCATGAGCATGCTTTTTTTTTTTTTTTGTCTA [ATCTG]	0.539 ± 0.01	0.381 ± 0.021
TTTTTTCAGCATGATCAGCATTTTTTTTTTTTTTTGTCGT [TGCTG]	0.581 ± 0.021	0.451 ± 0.032
TTTTTTCAGCATGATCATCATTTTTTTTTTTTTTTGTCGG [GGCTG]	0.666 ± 0.025	0.506 ± 0.027
TTTTTTCAGCATGATCATGATTTTTTTTTTTTTTTGTCGC [CGCTG]	0.556 ± 0.034	0.444 ± 0.032
TTTTTTCAGCATGATCATGCTTTTTTTTTTTTTTTGTCGA [AGCTG]	0.645 ± 0.017	0.548 ± 0.034
TTTTTTCAGCATGATGAGCATTTTTTTTTTTTTTTGTCCT [TCCTG]	0.464 ± 0.02	0.346 ± 0.024
TTTTTTCAGCATGATGATCATTTTTTTTTTTTTTTGTCCG [GCCTG]	0.54 ± 0.027	0.429 ± 0.081
TTTTTTCAGCATGATGATGATTTTTTTTTTTTTTTGTCCC [CCCTG]	0.38 ± 0.023	0.294 ± 0.019
TTTTTTCAGCATGATGATGCTTTTTTTTTTTTTTTGTCCA [ACCTG]	0.484 ± 0.021	0.366 ± 0.023
TTTTTTCAGCATGATGCGCATTTTTTTTTTTTTTTGTCAT [TACTG]	0.529 ± 0.025	0.39 ± 0.03
TTTTTTCAGCATGATGCTCATTTTTTTTTTTTTTTGTCAG [GACTG]	0.546 ± 0.028	0.404 ± 0.051
TTTTTTCAGCATGATGCTGATTTTTTTTTTTTTTTGTCAC [CACTG]	0.417 ± 0.0042	0.336 ± 0.022
TTTTTTCAGCATGATGCTGCTTTTTTTTTTTTTTTGTCAA [AACTG]	0.609 ± 0.012	0.453 ± 0.04
TTTTTTCAGCATGCGCAGCATTTTTTTTTTTTTTTGTATT [TTATG]	0.5 ± 0.07	0.375 ± 0.03
TTTTTTCAGCATGCGCATCATTTTTTTTTTTTTTTGTATG	0.57 ± 0.011	0.419 ± 0.027
TTTTTTCAGCATGCGCATGATTTTTTTTTTTTTTTGTATC [CTATG]	0.417 ± 0.024	0.309 ± 0.019
TTTTTTCAGCATGCGCATGCTTTTTTTTTTTTTTTGTATA [ATATG]	0.55 ± 0.031	0.404 ± 0.027
TTTTTTCAGCATGCTCAGCATTTTTTTTTTTTTTTGTAGT [TGATG]	0.575 ± 0.0066	0.459 ± 0.032
TTTTTTCAGCATGCTCATCATTTTTTTTTTTTTTTGTAGG [GGATG]	0.618 ± 0.027	0.51 ± 0.1

Sequence	background-corrected fluorescence (dye: Cy3 (3' terminal))	background-corrected fluorescence (dye: Cy5 (3' terminal))
TTTTTTCAGCATGCTCATGATTTTTTTTTTTTTTTGTAGC [CGATG]	0.535 ± 0.028	0.441 ± 0.081
TTTTTTCAGCATGCTCATGCTTTTTTTTTTTTTTTGTAGA [AGATG]	0.671 ± 0.021	0.533 ± 0.039
TTTTTTCAGCATGCTGAGCATTTTTTTTTTTTTTTGTACT [TCATG]	0.476 ± 0.0074	0.399 ± 0.025
TTTTTTCAGCATGCTGATCATTTTTTTTTTTTTTTGTACG	0.561 ± 0.02	0.475 ± 0.031
TTTTTTCAGCATGCTGATGATTTTTTTTTTTTTTTGTACC [CCATG]	0.434 ± 0.028	0.311 ± 0.017
TTTTTTCAGCATGCTGATGCTTTTTTTTTTTTTTTGTACA [ACATG]	0.528 ± 0.0051	0.399 ± 0.019
TTTTTTCAGCATGCTGCGCATTTTTTTTTTTTTTTGTAAT [TAATG]	0.531 ± 0.019	0.435 ± 0.043
TTTTTTCAGCATGCTGCTCATTTTTTTTTTTTTTTGTAAG [GAATG]	0.582 ± 0.038	0.462 ± 0.069
TTTTTTCAGCATGCTGCTGATTTTTTTTTTTTTTTGTAAC [CAATG]	0.441 ± 0.025	0.364 ± 0.026
TTTTTTCAGCATGCTGCTGCTTTTTTTTTTTTTTTGTAAA [AAATG]	0.618 ± 0.014	0.513 ± 0.028
TTTTTTCATCAGCAGCAGCATTTTTTTTTTTTTTTGGTTT	0.536 ± 0.02	0.402 ± 0.045
TTTTTTCATCAGCAGCATCATTTTTTTTTTTTTTTGGTTG [GTTGG]	0.524 ± 0.02	0.392 ± 0.022
TTTTTTCATCAGCAGCATGATTTTTTTTTTTTTTTGGTTC [CTTGG]	0.414 ± 0.026	0.31 ± 0.025
TTTTTTCATCAGCAGCATGCTTTTTTTTTTTTTTTGGTTA [ATTGG]	0.53 ± 0.015	0.446 ± 0.071
TTTTTTCATCAGCATCAGCATTTTTTTTTTTTTTTGGTGT [TGTGG]	0.663 ± 0.02	0.511 ± 0.037
TTTTTTCATCAGCATCATCATTTTTTTTTTTTTTTGGTGG	0.629 ± 0.028	0.483 ± 0.055
TTTTTTCATCAGCATCATGATTTTTTTTTTTTTTTGGTGC [CGTGG]	0.522 ± 0.0057	0.419 ± 0.027
TTTTTTCATCAGCATCATGCTTTTTTTTTTTTTTTGGTGA [AGTGG]	0.627 ± 0.026	0.555 ± 0.04
TTTTTTCATCAGCATGAGCATTTTTTTTTTTTTTTGGTCT [TCTGG]	0.486 ± 0.026	0.391 ± 0.031
TTTTTTCATCAGCATGATCATTTTTTTTTTTTTTTGGTCG [GCTGG]	0.526 ± 0.035	0.405 ± 0.028
TTTTTTCATCAGCATGATGATTTTTTTTTTTTTTTGGTCC [CCTGG]	0.404 ± 0.0089	0.317 ± 0.03
TTTTTTCATCAGCATGATGCTTTTTTTTTTTTTTTGGTCA [ACTGG]	0.506 ± 0.027	0.414 ± 0.02
